Data published in patent publication US20150231240A1, “ANTI-C16ORF54 ANTIBODIES AND METHODS OF USE THEREOF” (priority 2012, published 2015).

T1: N-terminal 32 amino acids of huC16orf54 (Homo sapiens, UniProt Q6UWD8)
T1 sequence (Q6UWD8 1-32 limits assumed): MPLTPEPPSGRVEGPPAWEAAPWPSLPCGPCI

T2: human C16orf54 (Homo sapiens, UniProt Q6UWD8)
T2 construct: expressed in transfected cells; host or cells: murine sarcoma cells (D42M1-huC16orf54)
T2 sequence (Q6UWD8 1-224): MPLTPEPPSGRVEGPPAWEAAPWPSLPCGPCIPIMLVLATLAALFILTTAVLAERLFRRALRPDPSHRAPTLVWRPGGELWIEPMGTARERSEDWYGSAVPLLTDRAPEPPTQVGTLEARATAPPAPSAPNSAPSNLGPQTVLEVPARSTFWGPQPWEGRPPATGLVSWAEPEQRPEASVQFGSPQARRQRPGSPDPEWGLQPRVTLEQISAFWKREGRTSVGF

B1: R29-7-1C: murine anti-C16orf54 monoclonal antibody, IgG2a; VH SEQ ID NO: 8, VL SEQ ID NO: 10 (antibody, V domains shown)
VH: MRVLILLWLFTAFPGILSDVQLQESGPGLVKPSQSLSLTCTVTGYSITSDYAWNWIRQFPGNKLEWMGYISYSGSIRYNPSLKSRISITRDTSKNQFFLQLNSVTTEDTATYYCAREKYDNYYYAMDYWGQGTSVTVSS
VL: MDSQAQVLMLLLLWVSGTCGDIVMSQSPSSLAVSVGEKVTLSCKSSQNLLYSTNQKNYLAWYQQKPGQSPKLLIYWASTRESGVPDRFTGSGSGTDFTLTISSVKAEDLAVYYCQQYYSYRTFGGGTKLEIK
modifications: R29-7-1C heavy chain variable region; R29-7-1C light chain variable region
B2: R29-67-7A: murine anti-C16orf54 monoclonal antibody, IgG2a; VH SEQ ID NO: 12, VL SEQ ID NO: 14 (antibody, V domains shown)
VH: MRVLILLWLFTAFPGILSDVQLQESGPGLVKPSQSLSLTCTVTGYSITSDYAWNWIRQFPGNKLEWMGYINYSGRTRYNPSLNSRISLTRDTSTNQFFLQLNSVTTEDTATYYCARENYDYEFYAMDYWGQGTSVTVSS
VL: MESQAQVLMLLLLWVSGTCGDIVMSQSPSSLAVSVGEKVTMSCKSSQNLLYSSNQKNYLAWYQQKPGQSPKLLIYWASTRESGVPDRFTGSGSGTDFTLTISSVKAEDLAVYYCQQYYIYRTFGGGTKLEIK
modifications: R29-67-7A heavy chain variable region; R29-67-7A light chain variable region

Legend:
[1] = target: T1, N-terminal 32 amino acids of huC16orf54; assay: Off-rate screen of hybridoma supernatants on OctetQK384 (biolayer interferometry); type: binding; conditions: calculated off-rate
Method: Eight anti-huC16orf54 monoclonal antibodies were further screened for binding and subsequent off-rate analysis using the OctetQK384® sytem (ForteBio). Hybridoma supernatants were screened for association to and dissocation from streptavidin sensors coated with the N-terminal 32 amino acids of huC16orf54 coupled to biotin, and the calculated offrates (kdis) are shown in Table 31. Cloned hybridomas with […] off-rates were carried forward for antibody purification.

human C16orf54 = target: T2, human C16orf54; assay: Flow cytometry reactivity with sarcoma cells expressing human C16orf54 (fold change over isotype); type: binding; conditions: for binding to human C16orf54 (flow cytometry): sarcoma cells expressing human C16orf54, 10 μg/ml antibody
Method: Anti-C16orf54 antibodies which bound to human C16orf54 were tested for their reactivity with human C16orf54 and their crossreactivity with C16orf54 from cynomolgous monkeys (cyno C16orf54) using flow cytometry. Sarcoma cells transfected with and expressing human C16orf54 or cyno C16orf54 were washed with PBS with 0.1% BSA, incubated with FcX receptor blocking solution (BioLegend) for 15 minutes, incubated with 10 μg/ml of anti-C16orf54 antibody for 1 hour at 4° C., washed twice with PBS with 0.1% BSA, incubated with 20 μg/ml of R-Phycoerythrin-AffiniPure F(ab′)2 Fragment Goat Anti-Mouse IgG, Fcγ Fragment Specific (Jackson ImmunoResearch) for 30 minutes at 4° C., washed twice with PBS with 0.1% BSA, incubated with the viability dye TO-PRO-3 iodide (Life Technologies), and immediately analyzed on a MACSQuant Analyzer instrument (Miltenyi). For each cell line and anti-C16orf54 antibody, a fold change was derived by dividing the median fluorescence intensity for Phycoerythrin in the live cell population for the anti-C16orf54 antibody by the median fluorescence intensity for Phycoerythrin in the live cell population for the IgG isotype control antibody.

[2] = system: human erythroid and myeloid progenitors (normal human bone marrow); assay: Colony forming unit (CFU) progenitor cell assays; type: cell-based; conditions: for BFU-E / CFU-E / CFU-GEMM / CFU-GM / Total CFC / Total Erythroid: colonies after 14 days; for direct effect on colony number or colony size of bone marrow progenitors: 0.032-100 μg/ml added directly into the methylcellulose matrix, 14 days; for indirect effect on colony number or colony size of progenitors: 0.032-100 μg/ml, 24 hours liquid culture, then methylcellulose matrix
Method: Colony forming unit (CFU) assays were performed to establish if there is binding of anti-C16orf54 antibodies to various progenitor cells including: CFU-E: colony forming unit erythroid (erythroid colony forming cells); BFU-E: burst forming unit erythroid (earliest known erythroid precursor cells); CFU-GM: colony forming unit granulocyte/macrophage (granulocyte-macrophage colony forming cells); and CFU-GEMM: colony forming unit granulocyte, erythrocyte, monocyte/macrophage, megakaryocyte (most primitive colony-forming cells). […] Clogenic progenitors of the human erythroid and myeloid lineages were set up in methylcellulose-based medium. All test antibodies and reagents were added to the medium at indicated concentrations. Triplicate cultures were initiated for each condition. Following 14 days in culture myeloid and erythroid colonies were assessed microscopically and scored. For these assays, anti-C16orf54 antibodies were evaluated for their direct and indirect effects on human erythroid and myeloid progenitor proliferation. […] Indirect effects on progenitors were assessed by incubating the cells with these antibodies in a liquid culture for 24 hours and subsequent culture of these cells in the methylcellulose matrix.

[3] = system: KG-1 (acute myeloid leukemia) xenograft; type: in vivo, NOD-SCID mice; conditions: for tumor growth inhibition (in words) / tumor growth inhibition: KG-1 xenograft; for tumor growth inhibition (in words): compared to control IgG, antibodies weekly; for tumor growth inhibition: treatment initiated at 92 mm^3, HB121 IgG isotype negative control; for TGI (tumor growth inhibition) / Mean (tumor volume): Table 42, KG-1 AML model, NOD-SCID mice, weekly administration; for Mean (tumor volume): in mm³ (unit assumed)
Method: Subcutaneous tumors are generated by injection of 1×10^7 cancer cells in a mixture of PBS (without magnesium or calcium) and BD Matrigel™ (BD Biosciences) at a 1:1 ratio in the right flank of female SCID or nu^−/− mice. The injected total volume per mouse is […] with 50% being Matrigel (BD Biosciences). Mice are randomized once tumors reach a size between 65-200 mm^3. Antibodies are administered weekly, and body weights and tumors are measured once and twice weekly, respectively. Tumor volume is calculated as described (van der Horst et al. (2009) Neoplasia 11: 355-364). As a negative control, mice are injected with either purified mouse IgG or PBS; or a purified monoclonal antibody that recognizes an antigen other than C16orf54.
Anti-C16orf54 antibodies were tested for their anti-tumor activity in an animal-tumor model. For these studies, the cell line KG-1 (acute myeloid leukemia) was obtained from ATCC and cultured according to the suppliers' protocols. Animals were obtained from Taconic (Hudson, N.Y.). Studies were conducted with anti-C16orf54 antibodies and antibody-drug conjugates (ADCs) of these antibodies.
In these experiments, 4-6 week-old immunodeficient NOD-SCID female mice were used for the KG-1 tumor model. Mice were subcutaneously injected on the right flank with 6×10^6 viable cells (KG-1) in a mixture of PBS (without magnesium or calcium) and BD Matrigel™ (BD Biosciences). Once the tumor reached a size between 65-200 mm^3 mice were randomized. Anti-C16orf54 antibodies were administered weekly, and bodyweights and tumors were measured once and twice weekly, respectively. Tumor volume was calculated as described (van der Horst et al., supra). Experiments were performed on groups of at least eight animals per experimental point.
Statistical significance between treatment and control groups was calculated using the Graphpad Prism® software package and applying Student's two-tailed t-test. A p-value of less than 0.05 was considered significant.

C16orf54 ECD peptides = assay: Peptide crossblocking (Table 36); type: binding

Molecule	kdis [1] [s⁻¹]	binding to C16orf54-expressing cells (dual binders) (human C16orf54)	binding to human C16orf54 (flow cytometry) (human C16orf54)	BFU-E ([2]; 0.032 μg/ml)	CFU-E ([2]; 0.032 μg/ml)	CFU-GM ([2]; 0.032 μg/ml)	Total CFC ([2]; 0.032 μg/ml)	Total Erythroid ([2]; 0.032 μg/ml)	BFU-E ([2]; 0.8 μg/ml)	CFU-E ([2]; 0.8 μg/ml)	CFU-GM ([2]; 0.8 μg/ml)	Total CFC ([2]; 0.8 μg/ml)	Total Erythroid ([2]; 0.8 μg/ml)	BFU-E ([2]; 4 μg/ml)	CFU-E ([2]; 4 μg/ml)	CFU-GM ([2]; 4 μg/ml)	Total CFC ([2]; 4 μg/ml)	Total Erythroid ([2]; 4 μg/ml)	BFU-E ([2]; 20 μg/ml)	CFU-E ([2]; 20 μg/ml)	also measured
B1	0.0102	bind to C16orf54-expressing cells	bind human C16orf54	31 +/− 2	8 +/− 2	45 +/− 3	83 +/− 4	38 +/− 4	31 +/− 2	8 +/− 2	42 +/− 4	82 +/− 3	39 +/− 4	32 +/− 2	7 +/− 2	44 +/− 4	82 +/− 6	38 +/− 3	28 +/− 5	8 +/− 2	CFU-GEMM ([2]; 0.032 μg/ml): 1 +/− 1; CFU-GEMM ([2]; 0.8 μg/ml): 1 +/− 1; CFU-GEMM ([2]; 20 μg/ml): 1 +/− 1; CFU-GM ([2]; 20 μg/ml): 40 +/− 5; Total CFC ([2]; 20 μg/ml): 76 +/− 8; Total Erythroid ([2]; 20 μg/ml): 36 +/− 4; BFU-E ([2]; 100 μg/ml): 30 +/− 3; CFU-E ([2]; 100 μg/ml): 8 +/− 3; CFU-GEMM ([2]; 100 μg/ml): 1 +/− 1; CFU-GM ([2]; 100 μg/ml): 44 +/− 4; Total CFC ([2]; 100 μg/ml): 82 +/− 4; Total Erythroid ([2]; 100 μg/ml): 38 +/− 4; direct effect on colony number or colony size of bone marrow progenitors [2]: no effect on colony number or colony size of bone marrow progenitors; indirect effect on colony number or colony size of progenitors [2]: no effect on colony number or colony size; tumor growth inhibition (in words) [3]: inhibitors of tumor growth; tumor growth inhibition [3]: 69%; TGI (tumor growth inhibition) [3]: −8%; Mean (tumor volume) [3]: 2813.4; Peptide crossblocking (C16orf54 ECD peptides): none
B2	0.00845	bind to C16orf54-expressing cells	bind human C16orf54	28 +/− 2	7 +/− 2	39 +/− 3	74 +/− 4	35 +/− 1	32 +/− 3	7 +/− 2	43 +/− 5	81 +/− 6	38 +/− 5	30 +/− 2	9 +/− 2	43 +/− 2	81 +/− 1	39 +/− 3	33 +/− 3	6 +/− 2	CFU-GEMM ([2]; 20 μg/ml): 1 +/− 1; CFU-GM ([2]; 20 μg/ml): 40 +/− 1; Total CFC ([2]; 20 μg/ml): 79 +/− 4; Total Erythroid ([2]; 20 μg/ml): 39 +/− 3; BFU-E ([2]; 100 μg/ml): 32 +/− 2; CFU-E ([2]; 100 μg/ml): 7 +/− 2; CFU-GM ([2]; 100 μg/ml): 43 +/− 6; Total CFC ([2]; 100 μg/ml): 83 +/− 5; Total Erythroid ([2]; 100 μg/ml): 39 +/− 3; direct effect on colony number or colony size of bone marrow progenitors [2]: no effect on colony number or colony size of bone marrow progenitors; indirect effect on colony number or colony size of progenitors [2]: no effect on colony number or colony size; tumor growth inhibition (in words) [3]: inhibitors of tumor growth; tumor growth inhibition [3]: 70%; TGI (tumor growth inhibition) [3]: 6%; Mean (tumor volume) [3]: 3221.4; Peptide crossblocking (C16orf54 ECD peptides): aa1-31, aa1-15
